This is an account of results in patent US20250051444A1 (SUZHOU ZELGEN BIOPHARMACEUTICALS, published 2025).

To fix the notation:
T1: human LRRC15 (leucine-rich repeat containing protein 15) (human, UniProt Q8TF66 22-581)
T1 construct: whole, on cells; also called huLRRC15
T1 sequence (looked up): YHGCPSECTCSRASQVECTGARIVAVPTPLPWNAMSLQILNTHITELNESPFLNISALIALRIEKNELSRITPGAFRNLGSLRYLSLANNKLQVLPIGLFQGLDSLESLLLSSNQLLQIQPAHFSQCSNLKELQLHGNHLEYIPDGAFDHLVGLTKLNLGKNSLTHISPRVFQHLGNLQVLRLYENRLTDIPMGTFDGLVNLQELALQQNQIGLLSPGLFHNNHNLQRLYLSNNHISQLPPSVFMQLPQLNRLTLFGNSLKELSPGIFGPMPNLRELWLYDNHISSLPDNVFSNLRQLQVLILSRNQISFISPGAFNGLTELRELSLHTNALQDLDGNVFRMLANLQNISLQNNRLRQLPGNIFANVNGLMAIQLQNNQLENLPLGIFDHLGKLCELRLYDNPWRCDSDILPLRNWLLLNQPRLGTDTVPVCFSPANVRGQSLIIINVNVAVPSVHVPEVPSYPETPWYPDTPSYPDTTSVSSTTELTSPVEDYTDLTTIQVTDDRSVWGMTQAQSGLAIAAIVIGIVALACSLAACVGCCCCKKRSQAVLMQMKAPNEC

B1: L15-07 (antibody, V domains shown)
VH: QVQLVQSGAEVKKPGSSVKVSCKASGGTFSTYAISWVRQAPGQGLEWMGGITPMFGTPNYAQKFQGRVTITADESTSTAYMELSSLRSEDTAVYYCARGDWYDYHFDYWGQGTLVTVSS
VL: QSALTQPASVSGSPGQSITISCTGTSSDVGGYNYVSWYQQHPGKAPKLMIYEVSNRPSGVSNRFSGSKSGNTASLTISGLQAEDEADYYCQSYANRDNFVVFGGGTKLTVL
notes: From phage library screening
B2: L15-03 (antibody, V domains shown)
VH: QVQLVQSGAEVKKPGSSVKVSCKASGGTFSSYTISWVRQAPGQGLEWMGGIIPMFGTANYAQKFQGRVTITADESTSTAYMELSSLRSEDTAVYYCARGVALLATDFDYWGQGTLVTVSS
VL: QSALTQPASVSGSPGQSITISCTGTSSDVGGYNYVSWYQQHPGKAPKLMIYEVSNRPSGVSNRFSGSKSGNTASLTISGLQAEDEADYYCQSWTHDNSVVFGGGTKLTVL
notes: From phage library screening; also called anti-LRRC15 antibody L15-03
B3: L15-08 (antibody, V domains shown)
VH: QVQLVESGGGLVKPGGSLRLSCAASGFTFSDYYMSWIRQAPGKGLEWVSDISVSSSYTNYADSVKGRFTISRDNAKNSLYLQMNSLRAEDTAVYYCARLGGYRSFFSTDDGDSLDYWGQGTLVTVSS
VL: not shown
notes: From phage library screening
B4: L15-06 (antibody, V domains shown)
VH: EVQLLESGGGLVQPGGSLRLSCAASGFTFSSYYMSWVRQAPGKGLEWVADISVSGSYTNYADSVKGRFTISRDNSKNTLYLQMNSLRAEDTAVYYCARIGSYRSFFSTDDGDSLDYWGQGTLVTVSS
VL: not shown
notes: From phage library screening; tested as a 'monoclonal antibody molecule'; also called L15-L06
B5: 315-L06C08 (bispecific antibody)
chain: not shown
heavy: QVQLVESGGGLVKPGGSLRLSCAASGFTFSDYYMSWIRQAPGKGLEWVSDISVSSSYTNYADSVKGRFTISRDNAKNSLYLQMNSLRAEDTAVYYCARLGGYRSFFSTDDGDSLDYWGQGTLVTVSSASTKGPSVFPLAPSSKSTSGGTAALGCLVKDYFPEPVTVSWNSGALTSGVHTFPAVLQSSGLYSLSSVVTVPSSSLGTQTYICNVNHKPSNTKVDKRVEPKSCDKTHTCPPCPAPEFEGGPSVFLFPPKPKDTLMISRTPEVTCVVVDVSHEDPEVKFNWYVDGVEVHNAKTKPREEQYNSTYRVVSVLTVLHQDWLNGKEYKCKVSNKALPASIEKTISKAKGQPREPQVCTLPPSRDELTKNQVSLTCLVEGFYPSDIAVEWESNGQPENNYKTTPPVLDSDGSFFLYSDLTVDKSRWQQGNVFSCSVMHEALHNHYTQESLSLSPGK
light: not shown
notes: heterodimeric IgG1 Fc; also called bispecific antibody of structure c (scFv-scFv-Fc x Fab-Fc)
B6: 153-L06C (bispecific antibody)
chain 1: not shown
chain 2: EPKSCDKTHTCPPCPAPEFEGGPSVFLFPPKPKDTLMISRTPEVTCVVVDVSHEDPEVKFNWYVDGVEVHNAKTKPREEQYNSTYRVVSVLTVLHQDWLNGKEYKCKVSNKALPASIEKTISKAKGQPREPQVCTLPPSRDELTKNQVSLTCLVEGFYPSDIAVEWESNGQPENNYKTTPPVLDSDGSFFLYSDLTVDKSRWQQGNVFSCSVMHEALHNHYTQESLSLSPGK
notes: Targets LRRC15 and CD3; heterodimeric IgG1 Fc; also called bispecific antibody of structure b (scFv-scFv-Fc x Fc)

The target of this assay is T1, human LRRC15 (leucine-rich repeat …). The assay is described as follows: FACS on CHO cells expressing human LRRC15. As for the experimental part:
Furthermore, the binding ability of the LRRC15 antibodies of the present invention to CHO cells expressing LRRC15 was tested. Therein, CHO cells expressing LRRC15 were prepared by the following method: the full-length sequence gene fragments of human, mouse and monkey LRRC15 were obtained by whole gene synthesis, and then these fragments were inserted into the backbone of the stable expression vector to obtain the expression plasmid vectors. These three plasmids were transfected into CHO cells, and monoclonal cell lines were screened under the pressure of puromycin, which are the flow cytometry cell lines used in this example.
CHO cells expressing LRRC15 were washed with FACS buffer (0.5% BSA in PBS) and resuspended at 2E6 cells/ml with the gradient diluted LRRC15 antibodies. The resuspension was incubated on ice for 30 minutes, then washed twice with FACS buffer and incubated with the second antibody on ice for 30 minutes. After washing the resuspended cells with FACS buffer again, the cells were detected by flow cytometry. Based on the measured mean fluorescence intensity, the half maximal binding concentration (EC50) of each antibody was determined.
With B1, the binding result is listed as “binds”.

Turning to B2, the binding result is reported as “binds”.

With B3, the binding result is “binds”.

Turning to B4, the binding result is “binds”.

For B5, the binding result was “binds”.

Consider B6, for which the binding result was “binds”.
